Our source for the stoichiometry N values is paper doi:10.1101/294439.

Broadly, the stoichiometry N is the number of molecules, sites or subunits per partner or assembly.

Holding throughout (test): SEC
Assay [1] deals with Piper methysticum styrylpyrone synthase 1 (PmSPS1) (kava (Piper methysticum)).
Assay [2] deals with Piper methysticum chalcone synthase (PmCHS) (kava (Piper methysticum)).
Assay [3] concerns the target Piper methysticum kavalactone reductase 1 (PmKLR1) (kava (Piper methysticum)).
Assay [4] addresses Piper methysticum styrylpyrone synthase 2 (PmSPS2) (kava (Piper methysticum)).

The substance “Piper methysticum styrylpyrone synthase 1 (PmSPS1) (enzyme)” showed a stoichiometry N in assay [1] of 2.

Take “Piper methysticum chalcone synthase (PmCHS) (enzyme)”: in assay [2], the stoichiometry N came out at 2.

“Piper methysticum kavalactone reductase 1 (PmKLR1) (enzyme)” came in with a stoichiometry N in assay [3] of 2.

“Piper methysticum styrylpyrone synthase 2 (PmSPS2) (enzyme)” showed a stoichiometry N in assay [4] of 2.
